Source: the supplement of paper PMC9170038

Tested on: MS2 coat protein
Assay: apparent KD of MS2 coat protein; designed switch direction (-1 OFF switch, 1 ON switch): 1; higher = weaker reporter binding
Summary of the method: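 The apparent KD reported per design is the median over clusters of curve fits to normalised cluster fluorescence. The RNA switches were transcribed on Illumina chips by stalled E. coli RNA polymerase. SNAP-549-labelled MS2 coat protein was titrated from 0.7 or 1.5 nM, doubling up to 3 µM, in Tris-HCl pH 7.5 buffer containing KCl, MgCl2, BSA, DTT, tRNA and Tween-20, with no input, 200 uM small-molecule ligand, or an oligonucleotide input.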

[1] = input ligand: microRNA oligo, concentration not stated
[2] = Eterna round: R95, input ligand: FMN 200 uM
[3] = Eterna round: R95, input ligand: microRNA oligo, concentration not stated
[4] = Eterna round: R95, input ligand: none

ACAUGAGACGCAGGAUAUCUUGUACCUACAUGUGACAUGAGGAUCACCCAUGUGGUAAGUAUGAUAGAGAAGGGCGAGAUAUGU [Equivalance 56 - Jieux - Same State NG 2] (Eterna round: R96, puzzle: Same State NG 2)
apparent KD of MS2 coat protein (input ligand: FMN 200 uM): 19.7 nM
apparent KD of MS2 coat protein [1]: 31.6 nM
apparent KD of MS2 coat protein (input ligand: none): 58.9 nM

ACAUGAGAGAUAGGAUAUGUUGUACCUACAUGUGACAUGAGGAUCACCCAUGUGGUAAGUAUGAGACAGAAGGAUCAGAUAUGU [Equivalence 31 - Jieux - Same State NG 2] (Eterna round: R96, puzzle: Same State NG 2)
apparent KD of MS2 coat protein (input ligand: FMN 200 uM): 20.8 nM
apparent KD of MS2 coat protein [1]: 41.4 nM
apparent KD of MS2 coat protein (input ligand: none): 74 nM

ACAUGAGGAUCACCCAUGUAGGCUCAGGAAACUGUGCCACAUGAGGAUAUGGAUCCUAAUUGGAUCCAGAAGGCAUGAUUUAUU [Fiskers NG3ss - 21] (Eterna round: R96, puzzle: Same State NG 3)
apparent KD of MS2 coat protein (input ligand: FMN 200 uM): 243 nM
apparent KD of MS2 coat protein [1]: 1240 nM
apparent KD of MS2 coat protein (input ligand: none): 1290 nM

ACAUGAGGAUCACCCAUGUAUAGAUUUGAAUCUUAAGUUACGUAGGAUAUCGUGUUUAGUAUCAUCGAGAAGGACGAUCUGAUA [JR_SSNG3_Sub067] (Eterna round: R96, puzzle: Same State NG 3)
apparent KD of MS2 coat protein (input ligand: FMN 200 uM): 19.7 nM
apparent KD of MS2 coat protein [1]: 17.2 nM
apparent KD of MS2 coat protein (input ligand: none): 26 nM

ACAUGAGGAUCACCCAUGUAUUUAUAUGAAUCUUAAGUUACGUAGGAUAUCGUCUAUACUAUCAACGAGAAGGACGAACUCAAA [JR_SSNG3_Sub069] (Eterna round: R96, puzzle: Same State NG 3)
apparent KD of MS2 coat protein (input ligand: FMN 200 uM): 9.51 nM
apparent KD of MS2 coat protein [1]: 15.3 nM
apparent KD of MS2 coat protein (input ligand: none): 17.4 nM

ACCCGCGGGCCACAUGAGGAUCACCCAUGUGACCGGUGAUCCAAGGAUAUACGUGUGAUAGACGCGUAGAAGGUGGCCAAAACU [Rirazaedat] (Eterna round: R96, puzzle: Same State NG 3)
apparent KD of MS2 coat protein (input ligand: FMN 200 uM): 127 nM
apparent KD of MS2 coat protein [1]: 29.3 nM
apparent KD of MS2 coat protein (input ligand: none): 31.9 nM

ACGUCGAUAUCACAGGAUAUACUCACAUCUACAUGAGGAUCACCCAUGUAGCGGUAUUCCGGUGCGUAGAAGGGUGAUGGACGAC [Same State 2 - Mod of Artece v.4] (puzzle: Same State 2)
apparent KD of MS2 coat protein [2]: 14.4 nM
apparent KD of MS2 coat protein [3]: 12.4 nM
apparent KD of MS2 coat protein [4]: 12.2 nM

ACUCGGCAGAUAGGAUAUCCUGCAUGGAUAGUAGGAGAAGGAUCGUGCGCACAUGAGGAUCACCCAUGUGCCAAAUAAUAACAA [Reatedor] (Eterna round: R96, puzzle: Same State NG 1)
apparent KD of MS2 coat protein (input ligand: FMN 200 uM): 11 nM
apparent KD of MS2 coat protein [1]: 12.8 nM
apparent KD of MS2 coat protein (input ligand: none): 18.4 nM

ACUUAGUACAAUUUAGAUCUACAUGAGGAUCACCCAUGUACUGAGGAUAUCAGCUCGAAUAGAGCUGAGAAGGCAGAAGUACUU [SSNG3/8-A1] (Eterna round: R96, puzzle: Same State NG 3)
apparent KD of MS2 coat protein [1]: 192 nM

AGAGAACAUGAGGAUCACCCAUGUAGGAUGGGCAUAGGAUAUAGAAGGAUGAAGGAGAAACUAGAAGGAUGAUGGA [JR_SS1_Sub076] (puzzle: Same State 1)
apparent KD of MS2 coat protein [2]: 107 nM
apparent KD of MS2 coat protein [3]: 145 nM
apparent KD of MS2 coat protein [4]: 235 nM

AGAGAACAUGAGGAUCACCCAUGUGGGAGAUGCAUAGGAUAUAGGAGAGAGAGCGAGGAACUAGAAGGAUGAUGGA [JR_SS1_Sub081] (puzzle: Same State 1)
apparent KD of MS2 coat protein [2]: 79.7 nM
apparent KD of MS2 coat protein [3]: 63.7 nM
apparent KD of MS2 coat protein [4]: 191 nM
